Assay [1] deals with primary breast carcinoma cells. The experiment in a line: Bcl-XL expression and chemosensitivity of primary breast carcinoma cells cultivated with or without IL-4. The class given is cell-based, human. As to conditions: 6 days of in vitro culture in the presence of IL-4. An excerpt: To confirm that IL-4-induced upregulation of Bcl-XL is able to protect epithelial breast cells from apoptosis, freshly isolated normal breast epithelial cells were exposed to IL-4 and analyzed Bcl-XL expression and sensitivity to a panel of chemotherapeutic drugs commonly used to treat breast cancer. […] To confirm that in vivo exposure to IL-4 is responsible for high Bcl-XL expression and resistance to chemotherapy in breast cancer, Bcl-XL expression and sensitivity to apoptosis of primary breast carcinoma cells cultivated in the presence or absence of IL-4 was measured Freshly isolated breast cancer cells expressed high levels of Bcl-XL and were scarcely sensitive to chemotherapeutic drugs (FIGS. 14C and D). […] Thus, in vivo IL-4 production promotes the survival of breast cancer cells. […]
Cell pellets were washed twice with cold PBS and lysed on ice for 30 minutes with 1% NP40 lysis buffer (20 mM Tris-HCl pH 7.2, 200 mM NaCl, 1% NP40) in the presence of 1 mM phenylmethylsulphonyl fluoride (PMSF) and 2 μg/ml each of aprotinin, leupeptin and pepstatin. […] Lysate concentration was determined using the Bio-Rad protein assay (Bio-Rad Laboratories, Richmond, Calif.). […]

Assay [2] relates to RT112 bladder carcinoma cells. The assay can be described thus: MTS viability of RT112 cells: chemotherapy- and anti-CD95-induced apoptosis. In kind it is cell-based, human. An excerpt:
Anticancer treatment using cytotoxic drugs mediates cell death by activating the intracellular apoptotic program. To determine whether IL-4 was able to inhibit apoptosis induced by chemotherapeutic drugs, bladder tumor cells (RT112) were pretreated for two days with different concentrations of IL-4 and subsequently exposed to camptothecin or etoposide.
Human LNCAP prostate cancer cell line and human MDA-MB-231 breast cancer cell line were obtained from the American Type Culture Collection (ATCC, Manassas, Va.). Human RT112 bladder carcinoma cell line was kindly provided by Dr. M. Cippitelli (Regina Elena Cancer Institute, Rome, Italy). Cells were grown in RPMI 1640 (Life Technologies Inc., Grand Island, N.Y.) containing 10% heat inactivated fetal bovine serum supplemented with L-Glutamine 2 mM and 100 units/ml Penicillin-Streptomycin. Cells were kept in 5% CO2 atmosphere and routinely passaged when 80-85% confluent. […] Camptothecin, cisplatin, daunorubicine, etoposide and vincristine were purchased from Sigma-Aldrich Inc. (Sain Louis, Mo.) and resuspended in DMSO (cisplatin, camptothecin and etoposide) or in H2O (daunorubicine and vincristine). Anti-CD95 agonistic antibody (clone CH11) was purchased from Upstate Biotechnology (Lake Placid, N.Y.). Monoclonal antibody anti-Bcl-XL (H5, mouse) was from Santa Cruz (Santa Cruz, Calif.), antibody anti-cFlip/FLAME-1 (NF6, mouse) was kindly provided by Dr. P.H. Krammer (German Cancer Reseach Center, Heidelberg, Germany). Antibody anti β-actin (goat) was purchased from Oncogene (Boston, Mass.):
Cell viability was determined using the CellTiter 96® AQueous One Solution Cell Proliferation Assay (Promega, Madison, Wis.), according to the manufacturer's instructions. The assay is based on reduction of 3-(4,5-dimethylthiazol-2-yl)-5-(3-carboxymethoxyphenyl)-2-(4-sulfophenyl)-2H-tetrazolium, inner salt (MTS) to a colored formazan product that is measured spectrophotometrically. Cells were seeded in 96-well tissue culture plates and incubated at 37° C. in a 5% CO2 incubator overnight. […] After two days cells were treated for 10 hours with chemotherapeutic drugs or anti-CD95, then 20 μl of MTS were added to each well. After 3 hours of incubation at 37° C. with the MTS reagent, the plates were read on a Multilabel Counter (Victor2, Wallac, Perkin-Ehmer Inc., Norwalk, Conn.) and dye absorbance was measured at 490 nm.
The percentage of apoptotic cells was derived from the percentage of viable cells that was directly calculated from the values of the MTS assay. The percentage of protection from apoptosis was determined as: % protection=100%−X
X was calculated with the formule: (C1−C2):100=(S1−S2):X where:
C1 is the viability of untreated control cells, C2 is the viability of control cells treated with the apoptotic stimulus, S1 and S2 are the viability of cells preincubated with cytoldnes or transduced with anti-apoptotic genes, untreated (S1) or treated (S2) with the apoptotic stimuli.
(A) Percentage of viable RT112 bladder carcinoma cells pre-treated for two days with increasing doses of IL-4 (5, 10, 20, 50 and 100 ng/ml) which were maintained also during incubation with chemotherapeutic drugs and exposed to 50 ng/ml camptothecin of 7 μM etoposide. […] Cell viability was determined after 24 hours using the MTS assay as described in Materials and Methods and the percentage of protection from cell death was calculated as described in Materials and Methods. The results shown are the mean ±s.d. of four independent experiments.
When the cytokine is removed by washing the percentage of protection is downmodulated.
(E) IL-4 prevents anti CD95-induced apoptosis. […] Successively, cells were incubated with 30 ng/ml anti-CD95 agonistic antibody in standard medium, Control cells (−) were stimulated with anti-CD95 in the absence of cytokine pre-treatment. The results shown are the mean ±s.d. of four independent experiments.

B1: IL-4: human recombinant IL-4 (protein, UniProt P05112 25-153, looked up)
Interleukin-4: HKCDITLQEIIKTLNSLTEQKTLCTELTVTDIFAASKNTTEKETFCRAATVLRQFYSHHEKDTRCLGATAQQFHRHKQLIRFLKRLDRNLWGLAGLNSCPVKEANQSTLENFLERLKTIMREKYSKCSS
As to B1, in assay [1], the “Bcl-XL levels in primary breast cancer cells” value is “maintained high Bcl-XL levels” and the “sensitivity of primary breast cancer cells to chemotherapeutic drugs” value is reported as “low sensitivity to chemotherapeutic drugs”. For the same molecule, the “protection from chemotherapy-induced apoptosis at 20 ng/ml” value in assay [2] (20 ng/ml IL-4 for two days, camptothecin or etoposide, viability after 24 hours) is reported as “able to protect cells from chemotherapy-induced apoptosis”. In assay [2] (7 μM etoposide, IL-4 maintained in the culture medium), the “time course of protection from etoposide-induced cell death” value is “protected from etoposide-induced cell death from day 2 to day 4”. The “protective effect after shorter pretreatment” value in assay [2] (24 hours of IL-4 pretreatment) is “already consistent”. Further, the “protection from chemotherapy-induced apoptosis at higher concentrations” value in assay [2] (IL-4 higher than 20 ng/ml (50, 100 ng/ml)) is listed as “protective effect is maintained”. For the same molecule, the “protection of RT112 cells from drug-induced death” value in assay [2] (pretreated two days with IL-4, then camptothecin or etoposide) is on record as “significantly protected from drug-induced death”. In addition, the “CD95-induced apoptosis in bladder cancer cells” value in assay [2] (two days IL-4 pretreatment, 30 ng/ml anti-CD95 agonistic antibody) is on record as “significantly inhibit CD95-induced apoptosis”.

For the origin of these results see patent US7645449B2, “Sensitizing cells for apoptosis by selectively blocking cytokines” (priority 2003, dated 2010).
